Assay results reported in a protein production outcome set (Wang et al. 2014).

Experiment: label from the status in PepcDB records

Sequence | protein production
MASGSTQVKYLGIYQKMKQQILDGEYKINEKIPSSPILAEEFGVSVLTIKKALDLLVRDGYIIRRRGSGTVVQDWRQQEKARMIQTLTGTKAVYGSEVESKIIEFTIVGADEIIAEKLGISVGDFVYKIIRLRIIHSIPTIMEHTWMPIAVIPGVEASVLEESIYSYIQNKLGLKVGTSVVRVKGIRPDDKEKQFMNLTNQDFLMRVEQVAYLTDGRTFEYSYADHLPETFEFETVITAKSYKEA | failed
MIELQLELFPGHIAGLLLVELSKPVEDFASIFIQGTWECALLDAGVVFHKSQLLTAVNVAFQRFEAGRLKTHSLHNEVMLALSAKLSIRDGLAAVRFSWEKTRCLVVAVDPPASFPQAAESTSNALAAKVRHFPEGANELFNELLVHVDKPSIQNLYGTDIDPHWICTKIATVEYVRQLR | failed
MFKELHPNIRARILIQFLSKIIGSMIFPFMAIYFSMEINSKVAGILLMINVLAQFLAGMYGGHLADIIGRKKLMVAGELLKVFAFLGMVLCNSPVFHSPWITFVMLLLIGVAQGLINPAGEAMLIDVSTPENRSFMYSVSYWANNLSMMIGIIVGGWFFIDYLFPLLVALFIMSFVTAWLTISLISETLKQKAVLKKGSYGLVGMLKNYGQVLHDCRFLLYTLGGIAVMSIEFQRSNYISVRLAEDFQALLVHFGPLGNITLNGVQIVSVLTAVNTLFIVLFTVPVARFVTKRAQQPIMYVGFTLFAIGFAVCAFANNLAVLLLATAVLSIGELLYVPTRQTILAAIVDDNRRGAYMAFNGIIFQIGKMIGSVSLVFAPFIGKYGMATFTILLGVLSIVFSAAALKSGWKKVLAK | failed
AELQQTEKASAKKQDKAEIRNVIVMIGDGMGTPYIRAYRSMKNNGDTPNNPKLTEFDRNLTGMMMTHPDDPDYNITDSAAAGTALATGVKTYNNAIGVDKNGKKVKSVLEEAKQQGKSTGLVATSEINHATPAAYGAHNESRKNMDQIANSYMDDKIKGKHKIDVLLGGGKSYFNRKNRNLTKEFKQAGYSYVTTKQALKKNKDQQVLGLFADGGLAKALDRDSKTPSLKDMTVSAIDRLNQNKKGFFLMVEGSQIDWAAHDNDTVGAMSEVKDFEQAYKAAIEFAKKDKHTLVIATADHTTGGFTIGANGEKNWHAEPILSAKKTPEFMAKKISEGKPVKDVLARYANLKVTSEEIKSVEAAAQADKSKGASKAIIKIFNTRSNSGWTSTDHTGEEVPVYAYGPGKEKFRGLINNTDQANIIFKILKTGK | failed
MNNFKLIVRKWYIPVLIISLITLVASAYALYWATIPETKETQISIRHYSALAYFSGGAEVKKDNPIWANGSFVTLPVYSYSLTPEYSGEFYFTTAPRGDITIETEAKIVYFYEVSDAPVWEKVYYAASNTSRGEIKTNFKINVTDLKSKINEAQNSFGVYLGKTGARIDVSVHYYGKITGKDVDETLSFKIPIDVQSTYYSFSTLNETRDFEMPSTRVVEVQKPLHMKVIPAALCTVSIIFAGLSVVYRTKYSDVSSLEREIERVSWEKKLKEVSFARMPETNLEMVEVERFEDISKAAEETFEHLFYDREKGVFFFIHGGVLYYCREK | failed
MPASCQETARLLLRAPTLDDLPQACAIHGDPQTNRFNPNGPINAAACADKLHGWIEHWQQHGFGYWAIALRSDPQRLIGFGGIMQGFFGHEPGLNLYFRLRPEAWGQGYAAEMARAALHLAFSELHAPRVTGLVRPDNLPSRRALERLGLSLDGELDDFPGQAPSLLYRISAPDNPVPG | failed
MHTQEALFVRLALDAWNTQSSRTDKLIQSLSNEALAVETAPGRNSGTYLLGHLTAVHDAMLPLLELGDTLYPQLAPVFIQNPDKSGLEKPEINDLRLYWSLVQERLANQFNQLQPADWFNKHAAISREDFLKEPHRNKLSVLINRTNHMAYHLGQLAYLKK | not failed
MLNSAGKLIYGLCFLLVVCVNNAMAEVIHSERSLYRNILVEDNGDLRCLKFNVKSTKTRQSCLLKSQPQQLVFNYTKQLLTGLLVNPEPKHILIIGLGGGTMSNTLHQLLPDSYIDNVEIDESVIKVARQYFGFLENDQIKTYSQDGRVFVKRALLKKQEYDWIILDAFNGDYIPEHLMTKEYLEETKRLLSPQGILTANTFSSSQLYRYESATYKAVFGDYYQVSNPDNSNRIILARNSGLDENLYKELAAAEQSESITQLAIKLLAIGVEVKQLYKNIKSTATHQDWPDDSPVLTDQFSPANLLNIDVD | failed
MDALQLLTWSLILYLFASLASLFLLGLDRLAIKLSGITSLVGGVIGIISGITQLHAGVTLVARFAPPFEFADLTLRMDSLSAFMVLVISLLVVVCSLYSLTYMREYEGKGAAAMGFFMNIFIASMVALLVMDNAFWFIVLFEMMSLSSWFLVIARQDKTSINAGMLYFFIAHAGSVLIMIAFLLMGRESGSLDFASFRTLSLSPGLASAVFLLAFFGFGAKAGMMPLHSWLPRAHPAAPSHASALMSGVMVKIGIFGILKVAMDLLAQTGLPLWWGILVMAIGAISALLGVLYALAEQDIKRLLAWSTVENVGIILLAVGVAMVGLSLHDPLLTVVGLLGALFHLLNHALFKGLLFLGAGAIISRLHTHDMEKMGALAKRMPWTAAACLIGCLAISAIPPLNGFISEWYTWQSLFSLSRVEAVALQLAGPIAMVMLAVTGGLAVMCFVKMYGITFCGAPRSTHAEEAQEVPNTMIVAMLLLAALCVLIALSASWLAPKIMHIAHAFTNTPPATVASGIALVPGTFHTQVTPSLLLLLLLAMPLLPGLYWLWCRSRRAAFRRTGDAWACGYGWENAMAPSGNGVMQPLRVVFSALFRLRQQLDPTLRLNKGLAHVTARAQSTEPFWDERVIRPIVSATQRLAKEIQHLQSGDFRLYCLYVVAALVVLLIAIAV | failed
MKVVILGSGSYSGTPKPLCNCENCSIARRNPAFRRTRFSLYIEEGKILVDPSPDLHYHLERLNKKVENVFITHAHFDHIFGVPDLQVYKKLIISSNTLGIKVAKELSRLAFGSEVPSGYEWRYEELQFWNEYSFDNFRVIHFPVIHSLEIAGGYLFEIKGRRIGVTGDTGPEILKDEKVKKLLEGVDILIVEMTKRESIPGVHLGVSDSIEFAKVVGASYTVFAHISHTNYSHEVLEKRVRESGVQGEVARDFTIIEVLEHHHHHH | failed
MIKNNIKHTWYFGHPQQLVWDYLTKPELLSQWLMESDFQPVAGHTFMFNTKPKVKVGFDGLIYCQVLKVQPDHELEHHHHHH | not failed
MATIQAFWRFSRPHTIIGTTLSVWAVYLLTILGDGNSVNSPASLDLVFGAWLACLLGNVYIVGLNQLWDVDIDRINKPNLPLANGDFSIAQGRWIVGLCGVASLAIAWGLGLWLGLTVGISLIIGTAYSVPPVRLKRFSLLAALCILTVRGIVVNLGLFLFFRIGLGYPPTLITPIWVLTLFILVFTVAIAIFKDVPDMEGDRQFKIQTLTLQIGKQNVFRGTLILLTGCYLAMAIWGLWAAMPLNTAFLIVSHLCLLALLWWRSRDVHLESKTEIASFYQFIWKLFFLEYLLYPLALWLPNFSNTIF | failed
MSLWLTHPLFLPSLIVGVTIVLWATSLLPEFITALLFFAAAMMAKIAPPEVIFGGFASSAFWLVFSGFVLGIAIRKTGLADRAAQALSARLTDSWPRMVASVVLLSYALAFVMPSNMGRIALLMPIVAAMARRAGIADGSRGWFGLALAVGFGTFQLSATILPANVPNLVMSGAAEGSYGIHLNYVPYLLLHTPVLGWLKGAVLVALICWLFPGKPHPPRDLAPLPPMSRDEKRLAWLLAVVLSLWVTESWHGVGPAWTGLAAAVITLLPRVGFINGEEFASGVNMRTCIYVAGILGLAIAVTQTGIGGAVGNALLQVMPLDKDNPFTSFLALTGITSALNFIMTANGVPALYTTFAQSFADATGFPLLSVIMIQVLGYSTPLLPYQASPIVVAMGLGKVPARAGMQLCLALAAVSYLILLPLDYAWYQLLGKL | failed
MHKKTVILIIFAILGGVMGAAYFTRAWLVMGITSRLVNNIIVNILLGAIIFLILGSLFAGVLVRLINRIEAYLNRQNPMTLIFGSLLTIVGLALALLISQFLFRVPSFFIGTVIPWILMILFGYFGYRIGARLSKIRLEEWRKLFQSRSKKAEEETDKQVLDKETEPNFHHYKILDTNILIDGRIYDLAKTGFLEGTLLVPNFVLYELQYIADSSDSVKRVRGRRGLDILNKLQNEHIMPIEMYEGDFEDIPEVDSKLIALAKQNGGVIVTNDYNLNKVIQFQNVQVLNINSLANALKPRVIPGENLHVMVVKNGTERQQGVAYLDDGTMVVVEDGRYFINKQLDVVVTSAIQTDAGRMIFAKPLHSNKNIEEQANAGKEGKGSNSAKPTKRSR | failed
MRAISQYIAIFVITLTLSGCFFQNSDDQRWELAPQGTTSFALSRDARFALFFVKNDSIPEKNESQVKSGLHFWDLVENKELTFFGDQDQDKSTVSYIRISDNSRFAITATQTNFAVWDLGMGISEGLWSISDGIIRDVAIASNGQQVLLGLSNGKAIYINLATGRRLEFLAHREKVNSVALSANGKFALSGGNDYFAYLWDTETGQILRTFEHEKRVSRTALQRDGKYAFTADGGNEGFIWDLKTGEKITELSTLARQQVYSTARFSDDGQLLVTGSPSGTVNVWNTTSGKKLEQWRSEPLKDARPPTAVVYDVAIDKQQRVVSATSAGIAQAWLIE | failed
MVRGDDQLNGLQGGKRALDILCVATERTVSAFAYEEIGETSTEGDKRRERLRRLRRLINYSLSTTMNSSLSKRLKIDECKNQDPEQNPNRVASSPSSCHLESKRPQKVVSNKPVRNRKPVIVTDEDRTPTEWLIDVMREVNGMDAKLIFVKVLPNSDVDELQTRLMMPWKQILDMDFLNEEELEKIDRHHKKISASDKGADVIVVNSKGLQRKLKLKRWDMTSTSNYVLGLGWNKVVTDNILQRGTRLRIWSFHSPDMLFFAFVLSDPDPAPTECLNLLAKLCEETTCLEALQEANRMSSLVSDTELDLELRL | failed
MVTYSTFIVIAIYLILTILISWFVNQRSIGNTDFSTGGRQFGWFTAGVSILATYISAMTFIGMPGWVYQSGMEALNIHLNYPIVIFFAVVFFIPVFYRMGFTSIYEYLEHRFGVYARTINSVVFILVQCISSGVILYAIALILIQILPISIVEAIVYITLFTACYTYAGGISTVIWTDMLQSAVLIAGSVAIFVLLLLQVDGVHGVSREQLNIINLQFDLGVDTTLWAGVVAVSFLHMSVYGTNQLIIQRTLATRCEKTAQKSMLLCGYGAFFIYFFFALLGVLLSIFYQERHFTNSNEVILDFVFHHTNPWVIGLIISALAAAAMSTLDSTYNSMATVATFDLYQRFIRRNAPDHHYQAVARKMSLVAAGLVVIPALLAVSNESVLKTIASLTSIFVGIRLGSFVLGLFSNQANEKGVIAGSIISIAAVLGARLMDIAWPWFAPIGTVFFLVSGVVISRYWGDNSIQQQAFIARQKHLFATPTMSQYGLLVFAAVTIAVCAIIPDWLYNALS | failed
MSTTDDSYIVVNNEAAGKVSLKEKWWHVLDTYKVGIIPVPLFVLAGVLIGIDCLSGKLPSDIVVMVATLAFFGFACGEFGKRLPIIGKMGAAAICATFIPSAMVHYGLLPDVVVESTTKFYKSTNILYLYICCIIVGSIMSMNRQTLIQGFMRIFFPMLCGEIAGMLVGMGVGIALGLDPFQIFFFLILPIMAGGVGEGAIPLSIGYATILHMDQGVALGRVLPIVMLGSLTAIILAGVLNQLGKRYPHLTGEGELMPNKGNNLGGSESSAPASAFSGKADVTTIASGALLAILLYMVGMLGHKMIGLPAPVGMLFAAVVVKLAHGVSPKMLEGSQVVYKFFQTSVTYPILFAVGVAITPWQELVNAFTIQNLLVIISTVVTLVGTGFLVGRKIGMHPIDVAIISCCQSGQGGTGDVAILTAGNRMMLMPFAQIATRIGGAINVSISLLVLANFLV | failed
MVGQVIRKRGAYPEYTVEDVLAVIFLLKEPLGRKQISERLELGEGSVRTLLRKLSHLDIIRSKQRGHFLTLKGKEIRDKLLSMFSEPIGVSVDGYPGIAIVVKNPPEFKSIELRDEAIKFDAKGAMILTVKDNEIVFPEDFRPLKEMYPEVAKKIVDYEDGDAVIITWAETPAKALKSAIHVAYILKKEEITPEILEVVK | not failed
